In patent publication US20250114431A1, “COMPOUND, COMPOSITION AND METHODS FOR LOWERING CIRCULATING GLUCOSE” (THE HONG KONG POLYTECHNIC UNIVERSITY, priority 2023, published 2025):

Columns and labels:
[1] = system: HFD-fed obese mice; test: Recombinant Plac9 in high-fat diet (HFD)-induced obese, diabetic (DM2) mouse model, biometric data and glucose tolerance test; format: in vivo, C57BL/6J mice; conditions: vs PBS control
Description: Turning to FIG. 2A, 8-week-old male C57BL/6J mice (n=8) were fed with a high-fat diet (HFD) for 12 weeks to induce a diabetes mellitus type 2 (DM2) model and then treated with 2 mg/kg (per body weight; hereinafter as “BW”) of recombinant mouse Plac9 (synthesized and purified from E. coli expressing mouse Plac9 represented by SEQ ID NO: 2; hereinafter as “mPLAC9”) once daily via intraperitoneal (i.p.) injection for 18 days to evaluate its effects on glucose uptake and tolerance in an obese, diet-induced diabetic model. Body weight (FIG. 2B), fasting blood glucose level (FIG. 2C), feeding blood glucose level (FIG. 2D) and blood insulin level (FIG. 2E) were measured at the beginning of the i.p. injection and then once every 3 days until the end of the experiment (i.e., Day 3, 6, 9, 12, 15 and 18). Another group of HFD-fed mice was injected with PBS once daily and measured with the same biometric data as in the Plac9-injected group (treatment group) once every 3 days from the beginning of the injection until the end of the experiment.
Glucose tolerance test (GTT) was also performed in both the treatment and control groups at Day 0 and Day 15 of the experiment. […] At Day 15, the overall blood glucose level was also lower in the treatment group than that of the control group over the 90-minute time course (FIGS. 2H-2I).

[2] = system: STZ-induced diabetic mice; test: Recombinant Plac9 in streptozotocin (STZ)-induced insulin-deficient diabetic mouse model, biometric data and glucose tolerance test; format: in vivo, C57BL/6J mice
Description: Turning to FIG. 3A, 8-week-old male C57BL/6J mice (n=8) which were fed with standard chow (STC) diet were treated with streptozotocin (STZ) for 5 days to induce diabetes. Similar to Example 1, 2 mg/kg (BW) of recombinant mPLAC9 was administered to the STZ-induced diabetic mice via i.p. injection once daily for 18 days (treatment group). In parallel, PBS was injected to STZ-induced diabetic mice for 18 days as a control group.
GTT was also performed at Day 5 and Day 15 in this STZ-induced diabetic model. […] Similar trend was observed between the treatment and control groups at Day 15 (FIGS. 3H-3I).

[3] = system: MIN6 pancreatic beta cells; test: Glucose stimulated insulin secretion assay in MIN6 cells (mouse insulin ELISA); format: cell-based; conditions: 10, 100 and 1000 nM, n=8; FIG. 5A
Description: (§1) To verify that the glucose homeostasis is regulated through liver or hepatocytes by overexpression of Plac9 in an insulin-independent manner, an in vitro insulin secretion assay was performed on confluent pancreatic beta cells, MIN6, in each well treated by […] of Exendin-4 or different concentrations of recombinant Plac9 of mouse origin at 10, 100 and 1000 nM (n=8) and measured the insulin content of each well by a mouse insulin ELISA kit. […] A glucose uptake assay was performed on primary hepatocytes and hepatic cell line, HepG2, treated with different concentrations (from 0.125 or 0.25 to 1.0 μM) in the presence or absence of exogenous 10 nM insulin, and the results are shown in FIGS. 5B and 5C, respectively.

[4] = system: primary hepatocytes; test: Glucose uptake assay (2DG6P) in primary hepatocytes; format: cell-based
Description: as §1

B1: mPLAC9: recombinant mouse Plac9 synthesized and purified from E. coli expressing mouse Plac9 represented by SEQ ID NO: 2 (protein, listed as Mus musculus)
chain: EWGQGPRDTPGRRAAESPSSPGDLAGSPGCDRHAAVQRRLDIMEETVEKTVEHLEAEVTGLLGLLEELASNLPTGPFSPKPDLLGDDGF
body weight change ([1]; 2 mg/kg BW i.p. once daily, 18 days, FIG. 2B): no obvious weight change | fasting blood glucose level ([1]; 2 mg/kg BW i.p. once daily, 18 days, FIG. 2C): no obvious changes | feeding blood glucose level ([1]; 2 mg/kg BW i.p. once daily, 18 days, FIG. 2D): no obvious changes | blood glucose level in glucose tolerance test (GTT) ([1]; Day 0, 90-minute time course, FIGS. 2F-2G): more significantly reduced | blood insulin concentration ([1]; Day 15, 2 mg/kg BW i.p. once daily, FIG. 2E): reduced | overall blood glucose level in glucose tolerance test (GTT) ([1]; Day 15, 90-minute time course, FIGS. 2H-2I): lower | change in body weight ([2]; 2 mg/kg BW i.p. once daily, 18 days, treatment vs PBS control, FIG. 3B): similar | change in fasting glucose level ([2]; 2 mg/kg BW i.p. once daily, 18 days, treatment vs PBS control, FIG. 3C): similar | change in feeding glucose level ([2]; 2 mg/kg BW i.p. once daily, 18 days, treatment vs PBS control, FIG. 3D): similar | overall blood glucose level in GTT ([2]; Day 0, 90-minute time course, vs PBS control, FIGS. 3F-3G): lower | blood insulin level ([2]; Day 0 to Day 5, treatment vs PBS control, FIG. 3E): similar | blood insulin concentration ([2]; from Day 5 till the end of the experiment, no change in control group, FIG. 3E): increased | restoration of blood insulin level to the level measured at Day 0 ([2]; till the end of the experiment, FIG. 3E): could not be restored | insulin secretion [3]: does not induce insulin secretion | glucose uptake ([4]; 0.125 to 1.0 μM, with or without 10 nM insulin, FIG. 5B): enhanced by Plac9 is in a dose-dependent manner | glucose uptake on co-administration with insulin ([4]; co-administration with 10 nM insulin, overall statement for liver or hepatocytes (primary hepatocytes and HepG2)): further enhance the glucose uptake
